Assay results reported in PMC6165294, “The Effect of Ca^2+, Lobe-Specificity, and CaMKII on CaM Binding to NaV1.1” (International Journal of Molecular Sciences, 2018).
Ends that are not written are not given here.

Molecular target: T1, calmodulin (CaM), human, wild type (human, UniProt P0DP23 1-149)
T1 construct: human calmodulin, subcloned from HEK293 cells; Vector pGEX-6P-1; also called wt CaM; apoCaM; source: E. coli BL21 (DE3), GST fusion purified on Glutathione Sepharose 4B; GST cleaved with PreScission Protease
Test: pull-down; GST-fusion mutated IQ (T1909A, S1918A, T1934A), treated with CaMKII and CIP, incubated with a fixed concentration of CaM (1.4 uM); [Ca2+] ≈ free; Coomassie stain
Details: both partners purified

B1: GST-fusion NaV1.1 IQ domain, potential CaMKII phosphorylation sites mutant (T1909A + S1918A + T1934A) (domain or fragment)
chain: ALKRKQEEVAAVIIQRAYRRHLLKRAVK
modifications: not fully specified (N-terminus); also: GST fusion protein
notes: IQ domain of human NaV1.1, amino acids 1909-1936, with T1909A, S1918A and T1934A; the treated samples are kept as one molecule; also called mutated NaV1.1 IQ; source: E. coli BL21 (DE3), GST fusion purified on Glutathione Sepharose 4B beads
binding result: binds
